Experimental data: patent US8444970B2, “Compositions and methods for treating ocular diseases and conditions” (Lpath, Inc., priority 2006, dated 2013)

Columns and labels:
[1] = system: HUVECs; test: HUVEC migration, Matrigel chemoinvasion assay; type: cell-based, human; settings: 1 uM S1P, 1 ug/ml antibody, 6 hr
Description: FIG. 5. FIG. 5 has two panels, A and B. In panel A, S1P is shown to promote neovascularization through induction of HUVECs tube formation and migration, which is reduced by SPHINGOMAB. […] The number of cells that migrated to the Matrigel membrane were counted in five independent fields.
Experiments were performed as described by Visentin et al. (Cancer Cell 2006 March; 9(3):225-38).

[2] = system: neovascularization of VEGF- or bFGF-containing Matrigel plugs; test: In vivo Matrigel plug assay, bFGF- or VEGF-supplemented plugs, neovascularization; design: species or system mouse; settings: 25 mg/kg i.p. every 48 hrs, 10 days
Description: Endogenous S1P from the blood and surrounding tissue could supply a wound with pro-angiogenic stimuli. The ability of SPHINGOMAB to reduce endogenous S1P in a wound was investigated. Optimally stimulated plugs (Matrigel supplemented with 0.5 μg/mL bFGF or […] VEGF) were implanted into mice. Mice received i.p. injections of 25 mg/kg SPHINGOMAB or saline every 48 hrs starting 1 day prior to Matrigel implantation. Each treatment group (Matrigel, Matrigel plus GF or Matrigel plus GF and administered SPHINGOMAB) consisted of a minimum of 6 mice. After 10 days, the mice were treated with heparin, injected with Isolectin B4-FITC, the plugs excised, embedded in OCT freezing medium and sectioned.

[3] = system: ovarian cancer (OVCAR3) cells; test: S1P-induced IL-8 release from ovarian cancer cells; type: cell-based; settings: 1 uM S1P, 22 hours
Description: FIG. 12. FIG. 12 has two panels, A and B, that show data from in vitro cell assays performed using several humanized monoclonal antibody variants. […] As described in Example 16, below, SKOV3 cells were treated for 48 hr. with 500 nM Taxol (Tax) in the presence or absence of 500 nM S1P with huMAbHCLC3 (309), huMAbHCLC5 (308), muMAb S1P (muMAb), or non-specific IgG1 (NS) at a concentration of 1 μg/mL. Values represent means±SEM (n=3) with triplicates run for each data point. “NT” means not treated, and “Veh” stans for vehicle only. […] In the experiments described in detail in Example 16, below, 100,000 OVCAR3 cells/well were starved overnight and 1 uM S1P was added to the culture media alone or pre-incubated with 1 ug/ml of non-specific antibody (NS), pATH201+pATH309 (LC3), pATH201+pATH308 (LC5), pATH207+pATH309 (cysLC3), pATH207+pATH308 (cysLC5), and 0.1 ug/ml (M0.1), 1 ug/ml (M1) or 10 ug/ml (M10) of anti-S1P murine antibody. After 22 hours of incubation, cell supernatants were collected and IL-8 secretion was measured by ELISA using an R&D system Quantikine human CXCL8/IL-8 kit. In the figure “NT” refers to non-treated cells.
In parallel, all the variants were tested for their effects on S1P-induced cytokine release from cancer cells. S1P is known to elicit significant release of IL-8 into the cell-conditioned media from cancer cells.

[4] = system: endothelial cell (EC) infiltration into Matrigel plugs; test: In vivo Matrigel plug assay, S1P-supplemented plugs, EC infiltration; design: species or system mouse; settings: systemic administration every 48 hrs from 1 day prior to implantation
Description: Based on in vivo studies showing that S1P increased endothelial capillary growth into subcutaneously implanted Matrigel plugs, we speculated that SPHINGOMAB could reduce de novo BV formation in vivo. To investigate this, we employed the in vivo Matrigel Plug assay for neovascularization. In one set of experiments, Matrigel was supplemented with either […], 0.5 μg/mL bFGF or 1 μg/mL VEGF and then injected […]. into mice (n=4). After 10 days, the mice were heparinized and injected with the fluorescent lectin, Isolectin B4-FITC, which binds to adhesion molecules expressed by vascular EC that form the growing BVs. The plugs were then excised, frozen in OCT, sectioned and viewed for FITC-stained BVs.
Sections of the plugs were then stained with hemotoxyln & eosin for evaluation of EC infiltration (FIG. 6B). The infiltration of ECs is a critical step in neo-vascularization. […] Cell infiltration is presumed to be ECs although we recognize that other cell types such as immune cells may also be stained.

[5] = Stability after thermochallenge (TM); type: physicochemical; settings: thermochallenge of supernatants
Description: iii. Stability. The humanized variants were tested for stability after challenge at high temperature. The approximate midpoints of the thermal unfolding transitions (TM) were determined for every humanized variant by subjecting the supernatants to temperatures ranging from 60 to 74° C. These temperatures were chosen based on the denaturation profile observed for the murine antibody molecule after thermochallenging between a broad range of temperatures between 50 and 80° C. The binding properties of each variant were determined before and after thermochallenge.

[6] = system: cardiac fibroblasts from transgenic mice expressing collagen-GFP; test: S1P-stimulated collagen gene expression (collagen-GFP reporter); type: cell-based, mouse; settings: 1 ug/mL antibody, 12-24 hr
Description: (§1) FIG. 7. […] See Example 7, below, for experimental details. […] In these experiments, fibroblasts were serum-starved and then treated with 0, 0.1, 0.5, or 1 μM S1P+/−1 μg/mL SPHINGOMAB for 12-24 hr. […] SPHINGOMAB neutralized each of these S1P effects. SPHINGOMAB reduced perivascular fibrosis in vivo in a murine model of a permanent myocardial infarction (E).
(§2) S1P makes profound contributions to wound healing by activating fibroblast migration, proliferation and collagen production; SPHINGOMAB neutralizes these effects. Several studies using multiple types of fibroblasts confirm S1P's ability to promote wound healing: 1) S1P increased Swiss-3T3 fibroblast proliferation as measured by ^3H-thymidine incorporation using standard methods (FIG. 7A); 2) S1P promoted the migration of cardiac fibroblasts in a standard scratch wound healing assay. […] In each of these assays, SPHINGOMAB neutralized S1P's. It is anticipated that ocular fibroblasts would respond similarly to S1P and SPHINGOMAB.

[7] = system: murine cardiac fibroblasts; test: S1P-stimulated cardiac fibroblast migration, scratch assay; type: cell-based, mouse; settings: 1 ug/mL antibody, 12-24 hr
Description: as §1, §2

[8] = system: WI-38 lung fibroblasts; test: S1P-induced differentiation into myofibroblasts (alpha-SMA immunoblot); type: cell-based; settings: 1 ug/mL antibody, 12-24 hr
Description: as §1, §2

[9] = system: perivascular fibrosis; test: Permanent myocardial infarction model, cardiac scar formation (Masson's trichrome); type: in vivo, mouse; settings: 25 mg/kg systemic, initiated 48 hrs after surgery
Description: Studies evaluated the efficacy of SPHINGOMAB to reduce cardiac scar formation after permanent myocardial infarction (MI) via ligation of the left descending coronary artery in mice. Systemic administration of 25 mg/kg SPHINGOMAB or saline was initiated 48 hrs after surgery. Antibody administration at 48 hr. was chosen to allow normal, reparative scar formation to occur during the early remodeling phase and permit beneficial, S1P-stimulated angiogenesis immediately after the MI. Two weeks after the infarct, mice were sacrificed and fibrosis was accessed by Masson's trichrome staining of the cardiac tissue. […] As a control for any non-specific wound-healing responses, sham animals underwent thoracotomy without coronary artery ligation (FIG. 7E).

B1: LT1002: murine anti-S1P monoclonal antibody, IgG1 kappa, hybridoma clone 306D326.26 (antibody, listed as Mus sp., V domains shown)
VH: QAHLQQSDAELVKPGASVKISCKVSGFIFIDHTIHWMKQRPEQGLEWIGCISPRHDITKYNEMFRGKATLTADKSSTTAYIQVNSLTFEDSAVYFCARGGFYGSTIWFDFWGQGTTLTVS
VL: ETTVTQSPASLSMAIGEKVTIRCITTTDIDDDMNWFQQKPGEPPNLLISEGNILRPGVPSRFSSSGYGTDFLFTIENMLSEDVADYYCLQSDNLPFTFGSGTKLEIK
S1P-induced HUVEC tube formation and migration [1]: reduced
decrease in neovascularization of VEGF-containing plugs vs saline-treated animals [2]: 5 fold
decrease in neovascularization of bFGF-containing plugs vs saline-treated animals [2]: 8.5 fold
IL-8 release [3]: reduced IL-8 release
EC infiltration into S1P-containing Matrigel plugs [4]: reduced amount of EC infiltration
TM (approximate midpoint of thermal unfolding transition) [5]: 65 °C
S1P-promoted collagen expression [6]: neutralized
S1P-promoted cardiac fibroblast migration [7]: neutralized
S1P-induced differentiation of WI-38 fibroblasts into myofibroblasts [8]: neutralized
perivascular fibrosis two weeks after infarct [9]: almost complete abrogation
